Measured values from article PMC2900151 (Biochemistry, 2010).

Molecular target: T1, soluble recombinant human FGFR3c human-IgG chimeric protein (human, UniProt P22607 23-375)
T1 sequence (looked up): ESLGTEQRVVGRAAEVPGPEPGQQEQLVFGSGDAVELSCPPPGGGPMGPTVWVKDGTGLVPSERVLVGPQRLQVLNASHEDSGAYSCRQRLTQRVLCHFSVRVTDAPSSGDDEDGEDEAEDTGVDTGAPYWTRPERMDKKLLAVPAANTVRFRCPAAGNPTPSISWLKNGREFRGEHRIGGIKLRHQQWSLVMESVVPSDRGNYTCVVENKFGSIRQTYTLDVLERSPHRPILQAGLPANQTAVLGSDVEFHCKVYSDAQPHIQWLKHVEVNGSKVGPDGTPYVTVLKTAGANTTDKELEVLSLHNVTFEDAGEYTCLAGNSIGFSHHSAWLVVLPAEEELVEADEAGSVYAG
Test: ligand and carbohydrate engagement

B1: recombinant human FGF18 (ligand, UniProt O76093 28-207, looked up)
chain: EENVDFRIHVENQTRARDDVSRKQLRLYQLYSRTSGKHIQVLGRRISARGEDGDKYAQLLVETDTFGSQVRIKGKETEFYLCMNRKGKLVGKPDGTSKECVFIEKVLENNYTALMSAKYSGWYVGFTKKGRPRKGPKTRENQQDVHFMKRYPKGQPELQKPFKYTTVTKRSRRIRPTHPA
- binding result: binds
